Measurements: publication PMC10547764, “KaScape: a sequencing-based method for global characterization of protein‒DNA binding affinity”

B1: type 8 (GGACC) (dsDNA)
DNA 1: GCGCTGGACCAGGAG
DNA 2: CTCCTGGTCCAGCGC
B2: type 3 (GACCC) (dsDNA)
DNA 1: GCGCTGACCCAGGAG
DNA 2: CTCCTGGGTCAGCGC
B3: type 6 (TGACC) (dsDNA)
DNA 1: GCGCTTGACCAGGAG
DNA 2: CTCCTGGTCAAGCGC
B4: type 7 (CGACC) (dsDNA)
DNA 1: GCGCTCGACCAGGAG
DNA 2: CTCCTGGTCGAGCGC
B5: type 4 (GACCA) (dsDNA)
DNA 1: GCGCTGACCAAGGAG
DNA 2: CTCCTTGGTCAGCGC
B6: type 1 (GACCG) (dsDNA)
DNA 1: GCGCTGACCGAGGAG
DNA 2: CTCCTCGGTCAGCGC
B7: type 2 (GACCT) (dsDNA)
DNA 1: GCGCTGACCTAGGAG
DNA 2: CTCCTAGGTCAGCGC
B8: KaScape n=4 member GACT (dsDNA)
DNA 1: GCGCTGACTAGGAGTGGGATCCGGGGGGGG
DNA 2: CCCCCCCCGGATCCCACTCCTAGTCAGCGC
B9: type 5 (AGACC) (dsDNA)
DNA 1: GCGCTAGACCAGGAG
DNA 2: CTCCTGGTCTAGCGC

Legend:
[1] = biological target: T1, AtWRKY1N (N-terminal WRKY DNA-binding domain) (UniProt Q9SI37 105-169); assay: EMSA; protein:DNA 1:1 and 2:1; KaScape: 2e-11 mol protein and 1e-10 mol dsDNA in 2 mL, 30 min, Ni beads 1 h at 4 C, washes in buffer C (25 mM HEPES pH 7.0, 100 mM NaCl); EMSA buffer not given; settings: protein: recombinant; tags: C-terminal His-tag (pET21b)
[2] = biological target: T1, AtWRKY1N (N-terminal WRKY DNA-binding …); assay: KaScape pull-down + NGS; random n=4 pool; second strongest; KaScape: 2e-11 mol protein and 1e-10 mol dsDNA in 2 mL, 30 min, Ni beads 1 h at 4 C, washes in buffer C (25 mM HEPES pH 7.0, 100 mM NaCl); EMSA buffer not given; settings: protein: recombinant; tags: C-terminal His-tag (pET21b)

T1 sequence (Q9SI37 105-169): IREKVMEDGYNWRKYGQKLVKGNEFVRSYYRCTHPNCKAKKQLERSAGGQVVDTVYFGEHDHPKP

Binder | binding result [1] | binding result [2]
B1 | binds | –
B2 | binds | –
B3 | binds | –
B4 | no binding | –
B5 | binds | –
B6 | binds | –
B7 | binds | –
B8 | – | binds
B9 | binds | –
